From publication PMC8358021

Tests used:
[1] = biological target: AbApeO-AbApeC heterodimer (ketosynthase-chain length factor complex of the aryl polyene biosynthesis gene cluster of Acinetobacter baumannii) (Acinetobacter baumannii); assay: ITC; 2.0 mM holo ACP1 or holo ACP2 injected (19 injections of 3 µl) into 0.1 mM AbApeO-AbApeC or AbApeR; 25 °C; 40 mM potassium phosphate pH 7.0; 2 mM 2-mercaptoethanol
[2] = biological target: AbApeR (FabB-like homodimeric ketosynthase of the A. baumannii APE gene cluster) (Acinetobacter baumannii); assay: as above

Kd [1]: 0.074 µM
stoichiometry N [1]: 1.63
Kd [2]: 18 µM
stoichiometry N [2]: 1.55
Substance: holo ACP1 (ApeE), acyl carrier protein 1 of the A. baumannii APE gene cluster (natural protein)
